Measured values: IntAct's records for PubMed 29039417

B1: BBSome complex member BBS1 (Homo sapiens), Q8NFJ9 (parent)
chain: MAAASSSDSDACGAESNEANSKWLDAHYDPMANIHTFSACLALADLHGDGEYKLVVGDLGPGGQQPRLKVLKGPLVMTESPLPALPAAAATFLMEQHEPRTPALALASGPCVYVYKNLRPYFKFSLPQLPPNPLEQDLWNQAKEDRIDPLTLKEMLESIRETAEEPLSIQSLRFLQLELSEMEAFVNQHKSNSIKRQTVITTMTTLKKNLADEDAVSCLVLGTENKELLVLDPEAFTILAKMSLPSVPVFLEVSGQFDVEFRLAAACRNGNIYILRRDSKHPKYCIELSAQPVGLIRVHKVLVVGSTQDSLHGFTHKGKKLWTVQMPAAILTMNLLEQHSRGLQAVMAGLANGEVRIYRDKALLNVIHTPDAVTSLCFGRYGREDNTLIMTTRGGGLIIKILKRTAVFVEGGSEVGPPPAQAMKLNVPRKTRLYVDQTLREREAGTAMHRAFQTDLYLLRLRAARAYLQALESSLSPLSTTAREPLKLHAVVQGLGPTFKLTLHLQNTSTTRPVLGLLVCFLYNEALYSLPRAFFKVPLLVPGLNYPLETFVESLSNKGISDIIKVLVLREGQSAPLLSAHVNMPGSEGLAAA
partner: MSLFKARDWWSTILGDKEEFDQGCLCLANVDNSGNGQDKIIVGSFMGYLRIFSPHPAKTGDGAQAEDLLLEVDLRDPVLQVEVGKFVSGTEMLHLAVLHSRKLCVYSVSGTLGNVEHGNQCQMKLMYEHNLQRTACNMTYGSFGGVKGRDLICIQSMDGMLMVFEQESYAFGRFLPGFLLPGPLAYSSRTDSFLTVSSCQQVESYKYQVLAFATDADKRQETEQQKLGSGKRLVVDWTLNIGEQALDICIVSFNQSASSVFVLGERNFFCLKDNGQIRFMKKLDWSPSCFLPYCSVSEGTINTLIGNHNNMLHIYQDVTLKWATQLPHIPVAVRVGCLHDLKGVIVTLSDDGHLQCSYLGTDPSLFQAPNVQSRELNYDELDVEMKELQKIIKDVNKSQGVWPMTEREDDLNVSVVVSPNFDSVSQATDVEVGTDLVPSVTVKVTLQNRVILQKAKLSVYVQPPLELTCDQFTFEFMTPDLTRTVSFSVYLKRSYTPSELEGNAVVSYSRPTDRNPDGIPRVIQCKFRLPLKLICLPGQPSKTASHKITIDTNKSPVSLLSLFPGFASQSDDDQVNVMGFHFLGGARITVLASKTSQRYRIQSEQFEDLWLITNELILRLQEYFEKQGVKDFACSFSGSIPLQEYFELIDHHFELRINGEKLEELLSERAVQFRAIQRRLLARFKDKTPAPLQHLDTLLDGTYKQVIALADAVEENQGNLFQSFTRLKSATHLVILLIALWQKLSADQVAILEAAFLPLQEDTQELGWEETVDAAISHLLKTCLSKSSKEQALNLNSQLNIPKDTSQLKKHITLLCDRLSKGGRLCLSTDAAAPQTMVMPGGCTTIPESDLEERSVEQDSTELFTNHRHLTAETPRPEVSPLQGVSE

Variants of: B1
Details: with pthb1_human BBS9, Q3SYG4

Effect of a mutation on the interaction, with no effect:
MAAASSSDSDACGAESNEANSKWLDAHYDPMANIHTFSACLALADLHGDGEYKLVVGDLGPGGQQPRLKVLKGPLVMTESPLPALPAAAATFLMEQHEPRTPALALASGPCVYVYKNLRPYFKFSLPQLPPNPLEQDLWNQAKEDRIDPLTLKEMLESIRETAEEPLSIQSLRFLQLELSEMEAFVNQHKSNSIKRQTVITTMTTLKKNLADEDAVSCLVLGTENKELLVLDPEAFTILAKMSLPSVPVFLEVSGQFDVEFRLAAACRNGNIYILRRDSKHPKYCIELSAQPVGLIRVHKVLVVGSTQDSLHGFTHKGKKLWTVQMPAAILTMNLLEQHSRGLQAVMAGLANGEVRIYRDKALLNVIHTPDAVTSLCFGRYGREDNTLIMTTRGGGLIIKILKRTAVFVEGGSEVGPPPAQAMKLNVPRKTRLYVDQTLREREAGTAMHRAFQTDLYLLRLRAARAYLQALESSLSPLSTTAREPLKLHAVVQGLGPTFKLTLHLQNTSTTRPVLGLLVCFLYNEALYSLPRAFFKVPLLVPGLNYPLETFVESLSNKGISDIIKVLVLREGQSAPKLSAHVNMPGSEGLAAA [L577K]
MAAASSSDSDACGAESNEANSKWLDAHYDPMANIHTFSACLALADLHGDGEYKLVVGDLGPGGQQPRLKVLKGPLVMTESPLPALPAAAATFLMEQHEPRTPALALASGPCVYVYKNLRPYFKFSLPQLPPNPLEQDLWNQAKEDRIDPLTLKEMLESIRETAEEPLSIQSLRFLQLELSEMEAFVNQHKSNSIKRQTVITTMTTLKKNLADEDAVSCLVLGTENKELLVLDPEAFTILAKMSLPSVPVFLEVSGQFDVEFRLAAACRNGNIYILRRDSKHPKYCIELSAQPVGLIRVHKVLVVGSTQDSLHGFTHKGKKLWTVQMPAAILTMNLLEQHSRGLQAVMAGLANGEVRIYRDKALLNVIHTPDAVTSLCFGRYGREDNTLIMTTRGGGLIIKILKRTAVFVEGGSEVGPPPAQAMKLNVPRKTRLYVDQTLREREAGTAMHRAFQTDLYLLRLRAARAYLQALESSLSPLSTTAREPLKLHAVVQGLGPTFKLTLHLQNTSTTRPVLGLLVCFLYNEALYSLPRAFFKVPLLVPGLNYPLETFVESLSNKGISDIIKVLVLREGQSAPELSAHVNMPGSEGLAAA [L577E]
MAAASSSDSDACGAESNEANSKWLDAHYDPMANIHTFSACLALADLHGDGEYKLVVGDLGPGGQQPRLKVLKGPLVMTESPLPALPAAAATFLMEQHEPRTPALALASGPCVYVYKNLRPYFKFSLPQLPPNPLEQDLWNQAKEDRIDPLTLKEMLESIRETAEEPLSIQSLRFLQLELSEMEAFVNQHKSNSIKRQTVITTMTTLKKNLADEDAVSCLVLGTENKELLVLDPEAFTILAKMSLPSVPVFLEVSGQFDVEFRLAAACRNGNIYILRRDSKHPKYCIELSAQPVGLIRVHKVLVVGSTQDSLHGFTHKGKKLWTVQMPAAILTMNLLEQHSRGLQAVMAGLANGEVRIYRDKALLNVIHTPDAVTSLCFGRYGREDNTLIMTTRGGGLIIKILKRTAVFVEGGSEVGPPPAQAMKLNVPRKTRLYVDQTLREREAGTAMHRAFQTDLYLLRLRAARAYLQALESSLSPLSTTAREPLKLHAVVQGLGPTFKLTLHLQNTSTTRPVLGLLVCFLYNEALYSLPRAFFKVPLLVPGLNYPLETFVESLSNKGISDIIKVLVLREGQSAPLASAHVNMPGSEGLAAA [L578A]
MAAASSSDSDACGAESNEANSKWLDAHYDPMANIHTFSACLALADLHGDGEYKLVVGDLGPGGQQPRLKVLKGPLVMTESPLPALPAAAATFLMEQHEPRTPALALASGPCVYVYKNLRPYFKFSLPQLPPNPLEQDLWNQAKEDRIDPLTLKEMLESIRETAEEPLSIQSLRFLQLELSEMEAFVNQHKSNSIKRQTVITTMTTLKKNLADEDAVSCLVLGTENKELLVLDPEAFTILAKMSLPSVPVFLEVSGQFDVEFRLAAACRNGNIYILRRDSKHPKYCIELSAQPVGLIRVHKVLVVGSTQDSLHGFTHKGKKLWTVQMPAAILTMNLLEQHSRGLQAVMAGLANGEVRIYRDKALLNVIHTPDAVTSLCFGRYGREDNTLIMTTRGGGLIIKILKRTAVFVEGGSEVGPPPAQAMKLNVPRKTRLYVDQTLREREAGTAMHRAFQTDLYLLRLRAARAYLQALESSLSPLSTTAREPLKLHAVVQGLGPTFKLTLHLQNTSTTRPVLGLLVCFLYNEALYSLPRAFFKVPLLVPGLNYPLETFVESLSNKGISDIIKVLVLREGQSAPLESAHVNMPGSEGLAAA [L578E]
MAAASSSDSDACGAESNEANSKWLDAHYDPMANIHTFSACLALADLHGDGEYKLVVGDLGPGGQQPRLKVLKGPLVMTESPLPALPAAAATFLMEQHEPRTPALALASGPCVYVYKNLRPYFKFSLPQLPPNPLEQDLWNQAKEDRIDPLTLKEMLESIRETAEEPLSIQSLRFLQLELSEMEAFVNQHKSNSIKRQTVITTMTTLKKNLADEDAVSCLVLGTENKELLVLDPEAFTILAKMSLPSVPVFLEVSGQFDVEFRLAAACRNGNIYILRRDSKHPKYCIELSAQPVGLIRVHKVLVVGSTQDSLHGFTHKGKKLWTVQMPAAILTMNLLEQHSRGLQAVMAGLANGEVRIYRDKALLNVIHTPDAVTSLCFGRYGREDNTLIMTTRGGGLIIKILKRTAVFVEGGSEVGPPPAQAMKLNVPRKTRLYVDQTLREREAGTAMHRAFQTDLYLLRLRAARAYLQALESSLSPLSTTAREPLKLHAVVQGLGPTFKLTLHLQNTSTTRPVLGLLVCFLYNEALYSLPRAFFKVPLLVPGLNYPLETFVESLSNKGISDIIKVLVLREGQSAPLKSAHVNMPGSEGLAAA [L578K]
